In US10907134B2, “Mutated genes for the catalytic protein of oplophorus luciferase and use thereof” (JNC CORPORATION, priority 2013, dated 2021):
Positions count from the first letter of the chain named. In names and notes the source's numbering stands.

B1: KAZ-Q11R: KAZ with single amino acid substitution Q11R (protein)
chain: FTLADFVGDWRQTAGYNQDQVLEQGGLSSLFQALGVSVTPIQKVVLSGENGLKADIHVIIPYEGLSGFQMGLIEMIFKVVYPVDDHHFKIILHYGTLVIDGVTPNMIDYFGRPYPGIAVFDGKQITVTGTLWNGNKIYDERLINPDGSLLFRVTINGVTGWRLCENILA
B2: KAZ-Q18L: KAZ with glutamine at position 18 substituted by leucine (protein, listed as Oplophorus gracilirostris)
chain: B1 chain with R11Q, Q18L
B3: KAZ-L27V: KAZ with single amino acid substitution L27V (protein)
chain: B1 chain with R11Q, L27V
B4: KAZ-A33N: KAZ with single amino acid substitution A33N (protein)
chain: B1 chain with R11Q, A33N
B5: KAZ-K43R: KAZ with single amino acid substitution K43R (protein)
chain: B1 chain with R11Q, K43R
B6: KAZ-F68D: KAZ with single amino acid substitution F68D (protein)
chain: B1 chain with R11Q, F68D
B7: KAZ-L72Q: KAZ with single amino acid substitution L72Q (protein)
chain: B1 chain with R11Q, L72Q
B8: KAZ-M75K: KAZ with single amino acid substitution M75K (protein)
chain: B1 chain with R11Q, M75K

System: not listed separately
Assay: Luminescence activity of ZZ-fused KAZ mutants in crude enzyme solutions
Type: biochemical
Conditions: Table 4; ZZ-fused (pCold-ZZ-P-); 1 μL crude enzyme solution, 1 mM DTT; 1 μg coelenterazine
Method: To express the ZZ-fused KAZ mutants in E. coli, the recombinant plasmid prepared in EXAMPLE 6 was used. Crude enzyme solutions were prepared in the same manner as EXAMPLE 4 using the E. coli BL21 strain (Novagen, Madison, Wis.) as a host cell. The resultant crude enzyme solution, 5 μL, was subjected to SDS-PAGE analysis to confirm expression of the proteins (FIG. 2). In FIG. 2, M and 1 to 18 are the same as described in FIG. 1.
DTT was added to the crude enzyme solution obtained in EXAMPLE 7 at a final concentration of 1 mM and the mixture was allowed to stand in an ice water for more than 5 hours. A luminescence reaction was started by adding 1 μL of the crude enzyme solution to 100 μL of TE containing 1 μg of coelenterazine (manufactured by JNC Corp.). The luminescence activity was determined using a luminometer (manufactured by Atto Inc.: AB2200) for 60 seconds, and the maximum intensity of luminescence (Imax) was shown as relative luminescence activity.
To express the ZZ-fused KAZ mutants in E. coli, the recombinant plasmid constructed in EXAMPLE 16 and pCold-ZZ-P-V44I-KAZ, pCold-ZZ-P-A54I-KAZ, pCold-ZZ-P-Y138I-KAZ prepared in EXAMPLE 6 were used. Crude enzyme solutions were prepared in the same manner as EXAMPLE 7, using the E. coli BL21 strain (Novagen, Madison, Wis.) as a host cell. DTT was added to the crude enzyme solutions at a final concentration of 1 mM. The mixtures were allowed to stand over 5 hours on ice, and luminescence activities were then assayed. The luminescence activities were determined by the method described in EXAMPLE 8. Also, 5 μL of the resultant crude enzyme solutions were subjected to SDS-PAGE analysis to confirm protein expression (FIG. 4). In FIG. 4, M and 1 to 9 are as follows. M: molecular weight size markers; 1: ZZ-P-KAZ; 2: ZZ-P-KAZ-V44I; 3: ZZ-P-KAZ-A54I; 4: ZZ-P-KAZ-Y138I; 5: ZZ-P-KAZ-V44I-A54I; 6: ZZ-P-KAZ-V44I-Y138I; 7: ZZ-P-KAZ-A54I-Y138I; 8: ZZ-P-KAZ-V44I-A54I-Y138I; and 9: ZZ-P-dnKAZ.

Question: Which “Relative Luminescence Activity (Imax)” value does the source give for B1 here?
Answer: 1.8

Question: With B2 as the molecule, how does the “Relative Luminescence Activity (Imax)” value read?
Answer: 0.3

Question: Which “Relative Luminescence Activity (Imax)” value does the source give for B3 here?
Answer: 0.1

Question: Which “Relative Luminescence Activity (Imax)” value does the source give for B4 here?
Answer: 1.0

Question: Which “Relative Luminescence Activity (Imax)” value does the source give for B5 here?
Answer: 0.6

Question: Which “Relative Luminescence Activity (Imax)” value does the source give for B6 here?
Answer: 2.7

Question: With B7 as the molecule, how does the “Relative Luminescence Activity (Imax)” value read?
Answer: 2.5

Question: Which “Relative Luminescence Activity (Imax)” value does the source give for B8 here?
Answer: 1.3

System: not listed separately
Assay: Luminescence activity of KAZ mutants (pCold II, E. coli) in supernatant and precipitate of crude enzyme solution
Type: biochemical
Conditions: Table 3; pCold II, E. coli BL21; 5 μL precipitate; 0.5 μg coelenterazine; 60 seconds
Method: In order to express the KAZ mutants in E. coli, the recombinant plasmid prepared in EXAMPLE 3 was used. The E. coli BL21 strain (Novagen, Madison, Wis.) was used as a host cell. The BL21 strain carrying the recombinant plasmid was incubated in 5 mL of Luria-Bertani medium (hereinafter designated as LB medium) containing ampicillin (50 μg/mL) at 37° C. for 18 hours. This seed culture, 0.1 mL, was inoculated to 10 mL of LB medium and incubated for 3 hours, followed by cooling in an ice-water bath for 1 hour. IPTG was added to the culture medium at a final concentration of 1 mM, followed by incubation at 15° C. for further 20 hours. After completion of the incubation, 1 mL of the cultured medium was harvested by centrifugation at 10,000 rpm for 2 minutes. The thus collected E. coli cells were suspended in 0.5 mL of 30 mM Tris-HCl (pH 7.6)-10 mM EDTA (manufactured by Wako Pure Chemical Industries, Ltd.) (hereinafter designated as TE). The E. coli cells were disrupted by sonication for 3 seconds using a Branson Model 250 Sonifier (Danbury, Conn.) to give a crude enzyme solution. After 0.5 mL of the crude enzyme solution was further centrifuged at 10,000 rpm for 2 minutes to separate the supernatant from the precipitate, the precipitate was suspended in 0.5 mL of TE. Then 20 μL each of the supernatant and precipitate were analyzed by SDS-PAGE to confirm the presence or absence of soluble and insoluble proteins. The results are shown in FIG. 1, wherein M and 1 to 17 denote: M: molecular weight size markers; 1: KAZ; 2 KAZ-A4E; 3: KAZ-Q11R; 4: KAZ-Q18L; 5: KAZ-L27V; 6: KAZ-A33N; 7: KAZ-K43R; 8: KAZ-V44I; 9: KAZ-A54I; 10: KAZ-F68D; 11: KAZ-L72Q; 12: KAZ-M75K; 13: KAZ-I90V; 14: KAZ-P115E; 15: KAZ-Q124K; 16: KAZ-Y138I; 17: KAZ-N166R and 18: dnKAZ.
A luminescence reaction was started by the addition of 5 μL each of the supernatant and precipitate obtained in EXAMPLE 4 to 100 μL of TE containing 0.5 μg of coelenterazine (manufactured by JNC Corp.). The luminescence activity was measured for 60 seconds using a luminometer (manufactured by Atto Corp.: AB2200) and expressed in terms of relative luminescence activity (Imax).
To express the KAZ mutants with two amino acid substitutions and three amino acid substitutions in E. coli using a pCold II vector, the recombinant plasmid constructed in EXAMPLE 13 and pCold-V44I-KAZ, pCold-A54I-KAZ, pCold-Y138I-KAZ prepared in EXAMPLE 3 were used. The supernatant and precipitate of each crude enzyme solution were prepared in the same manner as EXAMPLE 4, using the E. coli BL21 starin (Novagen, Madison, Wis.) as a host cell. The supernatant and precipitate, 20 μL each, were subjected to SDS-PAGE analysis to confirm the presence or absence of soluble proteins and insoluble proteins. In FIG. 3, M and 1 to 9 are as follows. M: molecular weight markers; 1: dnKAZ; 2: KAZ; 3: KAZ-V44I-A54I; 4: KAZ-V44I-Y138I; 5: KAZ-A54I-Y138I; 6: KAZ-V44I-A54I-Y138I; 7: KAZ-V44I; 8: KAZ-A54I; and 9: KAZ-Y138I.
The luminescence activities of 5 μL each of the supernatant and precipitate obtained in EXAMPLE 14 were determined in the same manner as EXAMPLE 5. The luminescence activity was assayed with a luminometer (manufactured by Atto Inc.: AB2200) for 60 seconds, and the maximum intensity of luminescence (Imax) was shown as relative luminescence activity.

Question: Which “Relative Luminescence Activity (Imax) Precipitate” value does the source give for B1 here?
Answer: 0.3

Question: Which “Relative Luminescence Activity (Imax) Precipitate” value does the source give for B2 here?
Answer: 0.2

Question: Which “Relative Luminescence Activity (Imax) Precipitate” value does the source give for B3 here?
Answer: 0.1

Question: For B4, which “Relative Luminescence Activity (Imax) Precipitate” value is on record?
Answer: 0.4

Question: Which “Relative Luminescence Activity (Imax) Precipitate” value does the source give for B5 here?
Answer: 0.2

Question: With B6 as the molecule, how does the “Relative Luminescence Activity (Imax) Precipitate” value read?
Answer: 0.2

Question: For B7, which “Relative Luminescence Activity (Imax) Precipitate” value is on record?
Answer: 0.6

Question: For B8, which “Relative Luminescence Activity (Imax) Precipitate” value is on record?
Answer: 0.4

Same assay, conditions: Table 3; pCold II, E. coli BL21; 5 μL supernatant; 0.5 μg coelenterazine; 60 seconds

Question: Which “Relative Luminescence Activity (Imax) Supernatant” value does the source give for B1 here?
Answer: 2.0

Question: For B2, which “Relative Luminescence Activity (Imax) Supernatant” value is on record?
Answer: 1.0

Question: With B3 as the molecule, how does the “Relative Luminescence Activity (Imax) Supernatant” value read?
Answer: 0.1

Question: Which “Relative Luminescence Activity (Imax) Supernatant” value does the source give for B4 here?
Answer: 1.0

Question: Which “Relative Luminescence Activity (Imax) Supernatant” value does the source give for B5 here?
Answer: 1.8

Question: Which “Relative Luminescence Activity (Imax) Supernatant” value does the source give for B6 here?
Answer: 5.4

Question: For B7, which “Relative Luminescence Activity (Imax) Supernatant” value is on record?
Answer: 7.2

Question: For B8, which “Relative Luminescence Activity (Imax) Supernatant” value is on record?
Answer: 4.6

System: CHO-K1 cells
Assay: Luminescence activity of KAZ mutants expressed in animal culture cells with signal peptide of Gaussia luciferase for secretion
Type: cell-based, Chinese hamster
Conditions: Table 5; pcDNA3-GLsp- vectors; CHO-K1, 48 hours; 5 μL cell extracts; 0.5 μg coelenterazine
Method: Chinese hamster ovary cell line CHO-K1 was cultured in Ham's F-12 medium (manufactured by Wako Pure Chemical Industries, Ltd.) supplemented with 10% (v/v) fetal bovine serum (manufactured by Biowest Inc.). The CHO-K1 cells were plated in a 6-well plate in 1×10^5 cells/well/2 mL medium (n=2) and cultured in an incubator at 37° C. in 5% (v/v) CO2. After 24 hours, the purified recombinant plasmid was transfected to CHO-K1 cells using a FuGene HD transfection kit (manufactured by Promega Corp.), which was provided for subsequent experiment. Specifically, 1 μg of the recombinant plasmid pGL4.13 [Luc2/sv40], 0.1 μg of the internal standard vector and 3 μL of FuGene HD were added to 100 μL of the medium, which was allowed to stand at room temperature for 15 minutes. Subsequently, 100 μL of the DNA-FuGene complex was added to the cells in the 6 wells. After incubation for 48 hours, the culture medium was collected. On the other hand, the KAZ mutants expressed in the cells were washed 3 times with 3 mL of 1×PBS, then suspended in 1 mL of 1×PBS and disrupted on ice by ultrasonication, which was used as enzyme solutions of the cell-extracts of KAZ mutants.
A luminescence reaction was started by adding 5 μL of the culture media and cell extracts obtained in EXAMPLE 10 to 100 μL of 30 mM Tris-HCl (pH 7.6)-10 mM EDTA (manufactured by Wako Pure Chemical Industries, Ltd.) containing 0.5 μg of coelenterazine (manufactured by INC Corp.). The luminescence activity was determined using a luminometer (manufactured by Atto Inc.: AB2200) for 60 seconds, and the maximum intensity of luminescence (Imax) was defined as a percentage.
Culture media of the KAZ mutants with two amino acid substitutions and KAZ mutants with three amino acid substitutions and the enzyme solutions of the cell-extracts of KAZ mutants were prepared in the same manner as EXAMPLE 10.
In the resultant enzyme solutions and the enzyme solutions of the cell-extracts of KAZ mutants, luminescence activities were determined in the same manner as EXAMPLE 11.

Question: Which “Relative Luminescence Activity (Imax) (%) Cell Extracts” value does the source give for B1 here?
Answer: 0.1%

Question: With B2 as the molecule, how does the “Relative Luminescence Activity (Imax) (%) Cell Extracts” value read?
Answer: 0.02%

Question: With B3 as the molecule, how does the “Relative Luminescence Activity (Imax) (%) Cell Extracts” value read?
Answer: 0.02%

Question: Which “Relative Luminescence Activity (Imax) (%) Cell Extracts” value does the source give for B4 here?
Answer: 0.1%

Question: Which “Relative Luminescence Activity (Imax) (%) Cell Extracts” value does the source give for B5 here?
Answer: 0.1%

Question: With B6 as the molecule, how does the “Relative Luminescence Activity (Imax) (%) Cell Extracts” value read?
Answer: 0.3%

Question: For B7, which “Relative Luminescence Activity (Imax) (%) Cell Extracts” value is on record?
Answer: 0.4%

Question: For B8, which “Relative Luminescence Activity (Imax) (%) Cell Extracts” value is on record?
Answer: 0.2%

Same assay, conditions: Table 5; pcDNA3-GLsp- vectors; CHO-K1, 48 hours; 5 μL culture medium; 0.5 μg coelenterazine

Question: Which “Relative Luminescence Activity (Imax) (%) Culture Medium” value does the source give for B1 here?
Answer: less than 0.01%

Question: With B2 as the molecule, how does the “Relative Luminescence Activity (Imax) (%) Culture Medium” value read?
Answer: less than 0.01%

Question: For B3, which “Relative Luminescence Activity (Imax) (%) Culture Medium” value is on record?
Answer: less than 0.01%

Question: With B4 as the molecule, how does the “Relative Luminescence Activity (Imax) (%) Culture Medium” value read?
Answer: less than 0.01%

Question: With B5 as the molecule, how does the “Relative Luminescence Activity (Imax) (%) Culture Medium” value read?
Answer: less than 0.01%

Question: With B6 as the molecule, how does the “Relative Luminescence Activity (Imax) (%) Culture Medium” value read?
Answer: less than 0.01%

Question: Which “Relative Luminescence Activity (Imax) (%) Culture Medium” value does the source give for B7 here?
Answer: less than 0.01%

Question: With B8 as the molecule, how does the “Relative Luminescence Activity (Imax) (%) Culture Medium” value read?
Answer: less than 0.01%
